Reference: patent US20160289698A1 (TRUSTEES OF DARTMOUTH COLLEGE, published 2016)

T1: ARR21 (subfamily-3) (Arabidopsis, UniProt Q9LYP5 1-613, limits assumed)
T1 sequence (looked up): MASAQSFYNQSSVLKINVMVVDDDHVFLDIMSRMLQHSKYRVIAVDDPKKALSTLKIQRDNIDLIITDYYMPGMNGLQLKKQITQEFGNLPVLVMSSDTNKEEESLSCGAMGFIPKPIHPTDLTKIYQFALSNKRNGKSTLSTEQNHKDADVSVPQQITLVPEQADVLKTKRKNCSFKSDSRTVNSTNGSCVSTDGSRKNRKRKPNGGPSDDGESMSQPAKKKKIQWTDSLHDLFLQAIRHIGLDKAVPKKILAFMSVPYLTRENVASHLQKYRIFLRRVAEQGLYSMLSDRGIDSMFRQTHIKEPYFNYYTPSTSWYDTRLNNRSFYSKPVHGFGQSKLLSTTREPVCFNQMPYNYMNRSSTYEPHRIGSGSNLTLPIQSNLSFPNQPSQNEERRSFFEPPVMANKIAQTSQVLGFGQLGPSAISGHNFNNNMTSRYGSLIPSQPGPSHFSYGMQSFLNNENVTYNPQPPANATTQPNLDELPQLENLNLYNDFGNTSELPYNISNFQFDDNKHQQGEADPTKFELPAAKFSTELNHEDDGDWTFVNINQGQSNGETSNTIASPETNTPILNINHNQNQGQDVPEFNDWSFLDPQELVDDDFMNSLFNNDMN

T2: ARR2 (Arabidopsis, UniProt Q9ZWJ9 1-664, limits assumed)
T2 construct: also called type-B response regulator ARR2
T2 sequence (looked up): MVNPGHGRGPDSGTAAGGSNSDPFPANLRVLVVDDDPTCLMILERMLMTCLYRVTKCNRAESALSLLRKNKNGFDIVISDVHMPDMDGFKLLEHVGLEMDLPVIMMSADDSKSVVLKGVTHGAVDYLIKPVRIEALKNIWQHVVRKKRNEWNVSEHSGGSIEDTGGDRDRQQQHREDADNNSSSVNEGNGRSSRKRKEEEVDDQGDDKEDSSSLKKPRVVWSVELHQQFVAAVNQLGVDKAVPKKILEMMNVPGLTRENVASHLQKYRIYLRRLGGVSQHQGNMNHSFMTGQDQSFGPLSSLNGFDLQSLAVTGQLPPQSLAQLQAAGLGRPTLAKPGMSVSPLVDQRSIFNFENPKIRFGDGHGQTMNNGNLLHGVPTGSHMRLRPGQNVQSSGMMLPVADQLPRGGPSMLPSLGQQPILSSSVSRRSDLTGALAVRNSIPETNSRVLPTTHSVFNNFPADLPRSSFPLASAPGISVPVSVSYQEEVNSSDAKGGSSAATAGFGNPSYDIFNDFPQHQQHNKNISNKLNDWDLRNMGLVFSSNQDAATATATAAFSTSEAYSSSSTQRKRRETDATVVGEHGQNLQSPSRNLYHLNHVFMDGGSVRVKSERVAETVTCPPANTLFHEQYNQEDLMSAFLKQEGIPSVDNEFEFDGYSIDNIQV

T3: ARR20 (type-B ARR subfamily-3) (Arabidopsis, UniProt Q9LZJ8 1-426, limits assumed)
T3 sequence (looked up): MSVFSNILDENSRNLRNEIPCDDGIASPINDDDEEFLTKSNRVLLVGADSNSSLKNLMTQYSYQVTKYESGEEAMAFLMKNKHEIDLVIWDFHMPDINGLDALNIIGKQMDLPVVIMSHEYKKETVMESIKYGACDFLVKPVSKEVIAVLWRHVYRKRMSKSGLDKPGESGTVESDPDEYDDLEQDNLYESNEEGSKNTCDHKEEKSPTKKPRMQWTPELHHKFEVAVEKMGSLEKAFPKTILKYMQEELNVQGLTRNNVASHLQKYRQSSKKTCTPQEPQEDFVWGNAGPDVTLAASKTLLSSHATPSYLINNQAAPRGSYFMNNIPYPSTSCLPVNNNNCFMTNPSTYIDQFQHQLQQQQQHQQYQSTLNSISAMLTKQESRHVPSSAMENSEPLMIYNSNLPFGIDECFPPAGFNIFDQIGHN

T4: ARR10 (Arabidopsis, UniProt O49397 1-552, limits assumed)
T4 construct: also called type-B response regulator ARR10
T4 sequence (looked up): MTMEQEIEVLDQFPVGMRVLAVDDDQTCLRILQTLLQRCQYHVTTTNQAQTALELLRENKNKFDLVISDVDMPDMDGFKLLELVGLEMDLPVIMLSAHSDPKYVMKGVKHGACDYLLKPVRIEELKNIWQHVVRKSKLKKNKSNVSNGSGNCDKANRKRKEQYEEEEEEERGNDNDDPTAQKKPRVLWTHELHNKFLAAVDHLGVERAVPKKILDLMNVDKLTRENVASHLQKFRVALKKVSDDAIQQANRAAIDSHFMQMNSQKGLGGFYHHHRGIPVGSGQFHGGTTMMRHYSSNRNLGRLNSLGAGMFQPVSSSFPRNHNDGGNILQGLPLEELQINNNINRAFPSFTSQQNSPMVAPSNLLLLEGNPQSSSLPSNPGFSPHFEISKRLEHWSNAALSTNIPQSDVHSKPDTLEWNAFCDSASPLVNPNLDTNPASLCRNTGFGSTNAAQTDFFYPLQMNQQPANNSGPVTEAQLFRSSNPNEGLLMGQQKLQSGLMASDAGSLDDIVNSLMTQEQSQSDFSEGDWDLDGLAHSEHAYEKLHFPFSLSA

T5: ARR12 (Arabidopsis, UniProt P62598 1-596)
T5 construct: YFP^N or YFP^C fusion of the full-length cDNA in BiFC; also called AtARR12; type-B response regulator AtARR12
T5 sequence (looked up): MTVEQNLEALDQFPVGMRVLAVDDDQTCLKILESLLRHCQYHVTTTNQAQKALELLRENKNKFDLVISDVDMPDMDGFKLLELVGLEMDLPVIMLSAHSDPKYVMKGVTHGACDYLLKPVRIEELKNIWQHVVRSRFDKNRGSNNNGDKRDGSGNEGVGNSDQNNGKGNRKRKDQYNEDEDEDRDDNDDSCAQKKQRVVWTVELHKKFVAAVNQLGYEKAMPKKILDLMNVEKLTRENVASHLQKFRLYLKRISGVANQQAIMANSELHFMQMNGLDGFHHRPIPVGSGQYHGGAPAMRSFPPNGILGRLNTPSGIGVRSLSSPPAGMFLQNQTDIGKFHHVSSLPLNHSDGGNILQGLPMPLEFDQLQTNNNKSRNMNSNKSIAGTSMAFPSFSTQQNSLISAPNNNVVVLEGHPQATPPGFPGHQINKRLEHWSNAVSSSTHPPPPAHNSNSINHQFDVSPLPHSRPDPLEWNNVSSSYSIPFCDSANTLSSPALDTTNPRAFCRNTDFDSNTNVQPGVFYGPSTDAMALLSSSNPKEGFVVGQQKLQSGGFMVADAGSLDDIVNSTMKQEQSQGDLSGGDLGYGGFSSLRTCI

B1: KISS ME DEADLY 4 (KMD4) (other, Arabidopsis, UniProt Q9M1Y1 1-418, looked up)
chain: MGVSKKKSGEIRGDLIPGLPEELAIECLVRVPFQFHSSIKSVCRSWKCVISSRSFIKERIGFGKAESLLCLVQPLTSPPSPAMMEGGEMSQKKKEEEEGESQMTQQLLQPRITGTPLYGLSVYNATLDTWHRVAIPERIPLFCECVAIQDAGKVLLIGGWDPETLQPVRDVFVLDFFAGEGSGRRFRRGRPMSAARSFFACASVGSTKVYVAGGHDDQKNALRSAEVYDVEKDEWSMLPPMTEGRDECHGFSMATDPGFCVLSGYGTETQGQFRSDGEIYDPITNSWSTIENVWPFPDLSPRGRTAAAAAEFPGDFRGCRLWCFIDSERQSQPHWEVEDDSMKWKVIMDTIRLPVTTMTSVFAGSLSGQAVAMIGGGGEESGTMMVKTTAEKNGGKWSHVNTPSGFSSLPFSCSSIYV
notes: Full-length protein; LexA fusion in yeast two-hybrid, YFP^N or YFP^C fusion in BiFC; also called At3g59940
B2: KISS ME DEADLY 3 (KMD3) (other, Arabidopsis, UniProt O80582 1-409, looked up)
chain: MTMEVSKKKGGDFQQCHELIPGLPSELALECLVRVPFQFQSAMRSVCRSWRSLLSDSSFIQERRRCGKTELLLCLVQPLTPPIPASKSVDETLMVDEKKSEDESHPRVFCTPRFGLSVYNAAMSTWHRVAFPEEEQIPLFCECVVLQDAGKILLIGGWDPETLQPTRDVYVLEFAGRKWRRGAPMKESRSFFACASVSPTKVYVAGGHDDQKNALRSAEVYDVEKDEWSSVTPMTEGRDECQGFAVGMGLRFCVLSGYGTESQGRFRSDGEIYDPATDSWSRIDNVWRFPDTSPRGRTAGDFRSSSTLWCFTDTDLQSERRWETNDDSRNLKLDLQSIQLPMTGSSVFAGSLGGESVVMIGGKRESEGEGEGGVMMKMTTEKKMGKWSHHVHIPCDFSTLPFSHASIYV
notes: Full-length protein; LexA fusion in yeast two-hybrid, YFP^N or YFP^C fusion in BiFC; also called At2g44130

What was measured:
Assay in all cases: yeast two-hybrid (LexA-KMD bait, B42-ARR prey, X-gal)
ARR21 (subfamily-3) = molecular target: T1, ARR21 (subfamily-3)
Text: (§1) The DUPLEX-A™ system (OriGene Technologies) was used for yeast two-hybrid analysis of interactions. KMD cDNAs were cloned into the pGilda bait vector, which produces an in-frame fusion with the LexA DNA-binding domain. Type-B ARR coding sequences were cloned into the pJG4-5 prey vector, which produces a B42 activation domain. The yeast strain EGY48 (MATa, trp1, his3, ura3, leu2::6 LexAop-LEU2) that contains the lacZ reporter plasmid pSH18-34 was transformed with the appropriate “bait” and “prey” plasmids. Interactions were tested on 5-bromo-4-chloro-3-indolyl-p-D-galactopyranoside (X-gal) medium (Ryu, et al. (2005) Cell 120(3): 395-406).
(§2) The KMD proteins also interacted with ARR20 (type-B ARR subfamily-3), but not with ARR19 (subfamily-2) and ARR21 (subfamily-3). […] All four KMD proteins interacted with both ARR1 and ARR12 in a BiFC assay. Strong fluorescence was detected in the nuclei of cells, consistent with the subcellular localization of the type-B ARRs (Hwang & Sheen J (2001) Nature 413(6854):383-389; Mason, et al. (2004) Plant Physiol. 135(2):927-937).

ARR2 = molecular target: T2, ARR2
Text: as §1, §2

[1] = molecular target: T3, ARR20 (type-B ARR subfamily-3)
Text: as §1, §2

ARR10 = molecular target: T4, ARR10
Text: as §1, §2

ARR12 = molecular target: T5, ARR12
Text: as §1, §2

Binder | binding result (ARR21 (subfamily-3)) | binding result (ARR2) | binding result [1] | binding result (ARR10) | binding result (ARR12)
B1 | no binding | binds | binds | binds | binds
B2 | no binding | binds | binds | binds | binds
